Where two headings read alike, the source gives them in different places.
How the values were obtained:
[1] = target: αvβ6 on VB6 cells (human) (UniProt P06756); assay: cell-based or functional assay
[2] = target: T1, recombinant soluble αvβ6, P06756; assay: competitive (Screening) ELISA; rsαvβ6 captured on anti-αv P2W7; competitor biotinylated fibronectin
T1 chain 1: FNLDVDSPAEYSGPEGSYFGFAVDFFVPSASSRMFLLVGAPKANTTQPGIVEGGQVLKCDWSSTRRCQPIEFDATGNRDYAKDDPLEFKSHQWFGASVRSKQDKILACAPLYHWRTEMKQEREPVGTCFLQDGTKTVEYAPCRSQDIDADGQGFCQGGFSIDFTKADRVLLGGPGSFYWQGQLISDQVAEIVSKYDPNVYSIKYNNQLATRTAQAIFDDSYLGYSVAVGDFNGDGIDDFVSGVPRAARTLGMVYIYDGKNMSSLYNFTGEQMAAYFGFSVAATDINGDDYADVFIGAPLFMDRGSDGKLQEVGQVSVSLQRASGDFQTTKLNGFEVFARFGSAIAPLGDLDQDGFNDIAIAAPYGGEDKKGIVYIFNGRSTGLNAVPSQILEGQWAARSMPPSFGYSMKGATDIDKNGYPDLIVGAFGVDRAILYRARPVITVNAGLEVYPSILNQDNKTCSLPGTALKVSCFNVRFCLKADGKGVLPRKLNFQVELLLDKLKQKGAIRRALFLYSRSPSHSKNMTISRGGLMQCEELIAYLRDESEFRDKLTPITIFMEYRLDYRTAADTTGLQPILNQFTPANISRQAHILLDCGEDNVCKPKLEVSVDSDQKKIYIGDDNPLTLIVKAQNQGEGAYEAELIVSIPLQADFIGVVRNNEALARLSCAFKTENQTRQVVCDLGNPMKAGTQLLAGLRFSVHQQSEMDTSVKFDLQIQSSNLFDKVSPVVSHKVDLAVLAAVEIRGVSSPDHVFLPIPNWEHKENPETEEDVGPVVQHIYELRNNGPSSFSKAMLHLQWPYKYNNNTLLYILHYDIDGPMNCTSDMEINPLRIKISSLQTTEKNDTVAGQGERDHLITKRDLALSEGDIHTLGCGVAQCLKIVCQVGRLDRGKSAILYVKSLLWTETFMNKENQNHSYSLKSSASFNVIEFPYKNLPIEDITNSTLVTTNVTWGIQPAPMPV
T1 chain 2: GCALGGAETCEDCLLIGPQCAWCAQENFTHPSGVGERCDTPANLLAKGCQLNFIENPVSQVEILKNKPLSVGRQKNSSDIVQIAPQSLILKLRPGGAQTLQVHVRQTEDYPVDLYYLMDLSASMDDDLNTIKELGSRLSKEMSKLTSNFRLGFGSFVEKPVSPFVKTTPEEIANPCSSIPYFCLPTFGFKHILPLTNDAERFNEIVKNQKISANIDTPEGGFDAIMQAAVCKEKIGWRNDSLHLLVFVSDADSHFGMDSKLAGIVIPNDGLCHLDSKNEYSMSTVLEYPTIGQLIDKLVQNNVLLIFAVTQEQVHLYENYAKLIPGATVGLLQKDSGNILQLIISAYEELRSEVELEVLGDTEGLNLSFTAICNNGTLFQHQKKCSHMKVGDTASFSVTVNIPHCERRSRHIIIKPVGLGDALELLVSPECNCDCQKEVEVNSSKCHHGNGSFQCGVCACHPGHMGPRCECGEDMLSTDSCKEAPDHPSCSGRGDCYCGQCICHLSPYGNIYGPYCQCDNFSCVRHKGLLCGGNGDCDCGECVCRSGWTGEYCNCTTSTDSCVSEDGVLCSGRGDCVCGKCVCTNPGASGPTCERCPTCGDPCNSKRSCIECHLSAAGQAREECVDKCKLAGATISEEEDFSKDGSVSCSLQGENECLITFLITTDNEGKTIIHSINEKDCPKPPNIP

[3] = target: T1, recombinant soluble αvβ6, P06756
[4] = target: T2, αvβ6 on 3T3β6.19 cells (mouse; human), P43406; assay: cell-based or functional assay
T2 chain 1: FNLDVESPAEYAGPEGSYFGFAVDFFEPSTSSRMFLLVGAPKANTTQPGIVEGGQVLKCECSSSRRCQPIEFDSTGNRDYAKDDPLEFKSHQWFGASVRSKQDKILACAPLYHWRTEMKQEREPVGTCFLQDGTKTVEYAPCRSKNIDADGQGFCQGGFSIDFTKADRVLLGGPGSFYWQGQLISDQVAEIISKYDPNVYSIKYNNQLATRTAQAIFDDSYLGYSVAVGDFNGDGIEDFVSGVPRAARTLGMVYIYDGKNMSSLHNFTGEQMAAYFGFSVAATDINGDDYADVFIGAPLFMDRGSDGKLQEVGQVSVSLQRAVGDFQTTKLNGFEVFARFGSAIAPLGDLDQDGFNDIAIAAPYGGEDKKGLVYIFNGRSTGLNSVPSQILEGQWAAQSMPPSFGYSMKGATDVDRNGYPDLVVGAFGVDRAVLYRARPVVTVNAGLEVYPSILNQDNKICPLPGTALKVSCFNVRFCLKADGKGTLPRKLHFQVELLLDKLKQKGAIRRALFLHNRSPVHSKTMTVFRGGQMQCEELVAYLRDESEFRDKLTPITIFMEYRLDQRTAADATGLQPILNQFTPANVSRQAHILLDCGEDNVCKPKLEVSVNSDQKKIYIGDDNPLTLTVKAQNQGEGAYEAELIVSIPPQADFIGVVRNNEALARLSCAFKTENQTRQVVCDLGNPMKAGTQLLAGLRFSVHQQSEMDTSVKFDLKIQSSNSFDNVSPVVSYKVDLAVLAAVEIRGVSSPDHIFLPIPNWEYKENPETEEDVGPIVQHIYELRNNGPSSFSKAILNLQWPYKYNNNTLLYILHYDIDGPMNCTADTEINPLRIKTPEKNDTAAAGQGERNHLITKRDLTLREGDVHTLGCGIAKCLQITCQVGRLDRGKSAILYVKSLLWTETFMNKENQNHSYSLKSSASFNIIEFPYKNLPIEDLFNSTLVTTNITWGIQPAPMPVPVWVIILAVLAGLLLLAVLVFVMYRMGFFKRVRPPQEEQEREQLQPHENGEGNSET
T2 chain 2: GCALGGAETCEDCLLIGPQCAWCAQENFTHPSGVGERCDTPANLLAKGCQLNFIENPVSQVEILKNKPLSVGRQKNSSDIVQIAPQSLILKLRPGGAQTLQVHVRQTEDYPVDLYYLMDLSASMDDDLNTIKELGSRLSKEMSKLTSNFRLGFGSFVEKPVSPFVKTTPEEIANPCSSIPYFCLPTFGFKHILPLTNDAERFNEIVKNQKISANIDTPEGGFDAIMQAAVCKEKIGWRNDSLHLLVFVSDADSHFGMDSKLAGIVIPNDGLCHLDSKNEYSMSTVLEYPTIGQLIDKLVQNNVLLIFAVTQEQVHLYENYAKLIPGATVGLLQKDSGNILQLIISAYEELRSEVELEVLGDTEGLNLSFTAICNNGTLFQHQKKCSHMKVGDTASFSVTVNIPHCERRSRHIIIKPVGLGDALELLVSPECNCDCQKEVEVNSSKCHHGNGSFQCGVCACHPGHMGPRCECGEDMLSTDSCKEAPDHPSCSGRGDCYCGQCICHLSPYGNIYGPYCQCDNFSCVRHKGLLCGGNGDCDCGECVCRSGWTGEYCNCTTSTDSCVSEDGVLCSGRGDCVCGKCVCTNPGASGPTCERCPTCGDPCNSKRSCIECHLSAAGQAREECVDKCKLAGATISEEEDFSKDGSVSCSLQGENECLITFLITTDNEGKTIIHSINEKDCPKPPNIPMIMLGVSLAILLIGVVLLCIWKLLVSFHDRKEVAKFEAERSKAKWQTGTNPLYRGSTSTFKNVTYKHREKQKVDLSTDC

[5] = target: T1, recombinant soluble αvβ6, P06756; assay: non-competitive binding ELISA; biotinylated peptide on immobilised rsαvβ6
[6] = target: T1, recombinant soluble αvβ6, P06756; assay: competitive sandwich ELISA; rsαvβ6 captured on anti-αv P2W7; competitor biotinylated fibronectin

A20FMDV1 (peptide)
IC50, inhibition of adhesion of VB6 cells to LAP [1]: 38200 nM

SAAARGDLEQLTSLLQNNVN (modifications not checked) [P_18INK]
IC50 [2]: 23 nM

VPNLRGDLQVLA (modifications not checked) [DD19]
IC50 [3]: 85 nM | IC50 of inhibition of αvβ6-dependent binding of cells to LAP [4]: 190000 nM

RRGDLATIH (modifications not checked) [DD1]
IC50 of inhibition of αvβ6-dependent binding of 3T3β6.19 to LAP [4]: 216000 nM | adhesion of 3T3β6.19 to LAP in the presence of 20 µM peptide, % of control cell adhesion (% of control cell adhesion) [4]: 57

CYVPNLRGDLQVLAQKVAKC (modifications not checked) [B-DBD2]
EC50 [5]: 1.7 nM

FTTGRRGDLATI (modifications not checked) [DD2]
IC50 [6]: 30.9 nM

GFTTGRRGDLATIHGMNRPF (modifications not checked) [A20LAP]
adhesion of 3T3β6.19 to LAP in the presence of 20 µM peptide, % of control cell adhesion (% of control cell adhesion) [4]: 32

TGRRGDLATI (modifications not checked) [DD3]
adhesion of 3T3β6.19 to LAP in the presence of 20 µM peptide, % of control cell adhesion (% of control cell adhesion) [4]: 79 | IC50 [6]: 22.6 nM
